Assay results from patent US20140295512A1, “Ketol-Acid Reductoisomerases With Improved Performance Properties” (CALIFORNIA INSTITUTE OF TECHNOLOGY, priority 2011, published 2014).
Values joined by “and” are separate entries in the source; they are usually repeats but may differ in a detail not shown here. Equal values may be shown once. Read-outs that look alike come from different tables or passages of the source.

Experiments:
Type in all cases: biochemical
[1] = KARI enzyme assay on cell lysates with NADH and NADPH as cofactors; conditions: for NADH-Dependent Specific Activity: empty vector control subtracted
Procedure: In this example, different KARI enzymes (Table 7) were screened for their activity with NADH and NADPH as cofactor. The enzymes were expressed in an S. cerevisiae strain by means of 2 micron plasmids carrying the KARI genes under the control of the S. cerevisiae TDH3 promoter. The transformants were cultivated in shake flask fermentations as described below and samples were taken after 44 h, centrifuged at 4000×g for 10 mins at 4° C. and the cell pellets were stored at −80° C. until analysis. The pellets were lysed by bead beating and the lysates were analyzed by KARI activity assay as described below using NADH and NADPH as cofactors.
Patched cells (or single colonies) grown on YPD+G418 plates at 30° C. were mixed into 3 mL YP+12% dextrose+200 mM MES, pH 6.5+G418, in 14 mL culture tubes and incubated at 250 RPM, 30° C. for ˜24 hours. The cells from the cultures were used to inoculate YP+12% dextrose+200 mM MES, pH 6.5+G418, in non-baffled flasks with a vented grey screw-caps at OD600 0.01. The cultures were incubated at 250 RPM, 30° C. for 24 hours, diluted 1:3 and incubated for another 20 h at 250 RPM, 30° C. Samples for enzyme assay pellets and protein quantification pellets were taken from each shake flask, and cell-free supernatant was used to measure glucose levels in shake flasks.
The assay and no substrate control reactions were performed in triplicate for each sample. The following stock solutions were prepared: 1 M potassium phosphate, pH 7, 0.1 M MgCl2, 100 mM DTT, 25 mM NADH or NADPH, 200 mM 2-acetolactate. The 2-acetolactate was made fresh each time by mixing 50 μL Ethyl-2-acetoxy-2-methylacetoacetate (EAMAA) with 990 μL water. Gradually 260 μL of 2 N NaOH was added in 10 μL increments to the EAMAA water mixture. After each addition the sample was vortexed for 15 seconds, and the procedure repeated until the entire 260 μL of 2 N NaOH was added. Afterwards the solution was mixed on an orbital shaker for 20 min (Krampitz, 1957). KARI reaction buffer (100 μL per reaction) was prepared to the following concentrations: 250 mM potassium phosphate, pH 7, 10 mM MgCl2, 1 mM DTT, 0.2 mM NADH or NADPH, 10 mM 2-acetolactate. For the no substrate controls, the 2-acetolactate was substituted with water. 10 μL of each lysate were transferred into a 96 well half area assay plate. The reaction was started with 90 μL of reaction buffer to each well using a multichannel pipette. The samples were mixed immediately. The samples were read at 340 nm every 10 s for 5 min.

[2] = KARI assay of purified S. exigua KARI and variants with NADH (Examples 6-9)
Method in brief: (§1)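 Kinetic read of NAD(P)H consumption at 340 nm in 100 mM potassium phosphate pH 7.0 with 1 mM DTT, 2.5 mM (S)-2-acetolactate and 10 mM MgCl2, cofactor 200 μM final. For Michaelis–Menten constants, NADPH was varied 200–12 μM and NADH 200–6 μM.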

[3] = KARI assay of purified S. exigua KARI and variants with NADPH (Examples 6-9); conditions: for U/mg NADPH (specific activity): cofactor NADPH
Method in brief: as §1

B1: E. coli IlvC: Escherichia coli ketol-acid reductoisomerase (ilvC), wild type (protein, UniProt P05793 2-491, looked up)
Ketol-acid reductoisomerase …: ANYFNTLNLRQQLAQLGKCRFMGRDEFADGASYLQGKKVVIVGCGAQGLNQGLNMRDSGLDISYALRKEAIAEKRASWRKATENGFKVGTYEELIPQADLVINLTPDKQHSDVVRTVQPLMKDGAALGYSHGFNIVEVGEQIRKDITVVMVAPKCPGTEVREEYKRGFGVPTLIAVHPENDPKGEGMAIAKAWAAATGGHRAGVLESSFVAEVKSDLMGEQTILCGMLQAGSLLCFDKLVEEGTDPAYAEKLIQFGWETITEALKQGGITLMMDRLSNPAKLRAYALSEQLKEIMAPLFQKHMDDIISGEFSSGMMADWANDDKKLLTWREETGKTAFETAPQYEGKIGEQEYFDKGVLMIAMVKAGVELAFETMVDSGIIEESAYYESLHELPLIANTIARKRLYEMNVVISDTAEYGNYLFSYACVPLLKPFMAELQPGDLGKAIPEGAVDNGQLRDVNEAIRSHAIEQVGKKLRGYMTDMKRIAVAG
Specific Activity with NADH/Specific Activity with NADPH [1]: 0.175
NADH-Dependent Specific Activity [1]: 0.04 U/mg lysate

B2: Se1_KARI: Slackia exigua (ATCC 700122) ketol-acid reductoisomerase, wild type, SEQ ID NO: 2 (protein, listed as Slackia exigua)
chain: MSVKTKEKEMAVTILYEQDVDPKVIQGLKVGIIGYGSQGHAHALNLMDSGVDVRVGLREGSSSWKTAEEAGLKVTDMDTAAEEADVIMVLVPDEIQPKVYQEHIAAHLKAGNTLAFAHGFNIHYGYIVPPEDVNVIMCAPKGPGHIVRRQFTEGSGVPDLACVQQDATGNAWDIVLSYCWGVGGARSGIIKATFAEETEEDLFGEQAVLCGGLVELVKAGFETLTEAGYPPELAYFECYHEMKMIVDLMYESGIHFMNYSISNTAEYGEYYAGPKVINEQSREAMKEILKRIQDGSFAQEFVDDCNNGHKRLLEQREAINTHPIETTGAQIRSMFSWIKKED
kcat NADH [2]: 0.40 s⁻¹
U/mg NADH (specific activity) ([2]; cofactor NADH): 0.15 U/mg
kcat NADH ([2]; listed as Se1_KARI (wt)): 0.40 s⁻¹
kcat/Km ratio NADH/NADPH (cofactor specificity) ([2]; listed as Se1_KARI (wt)): 0.08
kcat NADH ([2]; listed as Se1_KARI^his6): 0.4 s⁻¹
kcat/Km ratio NADH/NADPH (cofactor specificity) ([2]; listed as Se1_KARI^his6): 0.08
Km ([2]; read-out: Km for cofactor NADH): 45 µM
Ratio NADH/NADPH (U/mg) ([2]; specific activity ratio): 0.47
Specific Activity with NADH/Specific Activity with NADPH [1]: 0.96
NADH-Dependent Specific Activity [1]: 0.059 U/mg lysate
kcat NADPH [3]: 0.80 s⁻¹
U/mg NADPH (specific activity) [3]: 0.32 ± 0.03 U/mg
U/mg NADPH (specific activity) ([3]; listed as Se1_KARI (wt)): 0.32 U/mg
U/mg NADPH (specific activity) ([3]; listed as Se1_KARI^his6): 0.32 U/mg and 0.32 ± 0.03 U/mg
kcat NADPH ([3]; listed as Se1_KARI (wt)): 0.80 s⁻¹
kcat NADPH ([3]; listed as Se1_KARI^his6): 0.8 s⁻¹
Km ([3]; read-out: Km for cofactor NADPH): < 1 µM
